This note sets out measurements from patent US20230029835A1 (KEYMED BIOSCIENCES, published 2023).

The target in experiment [1] is T1, human TSLP recombinant protein (human, UniProt Q969D9 29-159, biotinylated in the blocking and cell-binding assays (sites not given)). The experiment in a line: cell-based or functional assay.
For experiment [2], the target named is T1, human TSLP recombinant protein. The experiment in a line: ELISA on coated human TSLP. (In general: In an ELISA, binding on a coated surface is turned into a signal by an enzyme label.)
Description: (§1) The plate was washed three times with PBS and blocked by adding 200 μL/well of PBS containing 2% skim milk for 1 hour. […] After washing with PBST and PBS three times, respectively, 100 μL of TMB substrate was added to each well for color development at 37° C. for 10 minutes, the reaction was terminated with 50 μL of 2M sulfuric acid solution per well, and the absorbance was read at a wavelength of 450 nm.
In experiment [3] the target is T2, Cynomolgus macaques TSLP recombinant protein (Cynomolgus macaques, UniProt Q969D9 29-159 (human entry), limits assumed, biotinylated in the blocking assays (sites not given)).
T2 construct: also called cyTSLP; biotinylated Cynomolgus macaques TSLP protein
T2 chain: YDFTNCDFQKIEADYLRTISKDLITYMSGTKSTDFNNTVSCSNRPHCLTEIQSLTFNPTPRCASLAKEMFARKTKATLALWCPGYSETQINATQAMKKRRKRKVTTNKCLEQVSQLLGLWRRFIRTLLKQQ
As to the kind of experiment: ELISA on coated cynomolgus TSLP.

Experiment [4] deals with T1, human TSLP recombinant protein. As to the kind of experiment: competition ELISA, biotin-human TSLP to coated human TSLPR-Fc.
Description: (§2) Human TSLPR recombinant protein was coated onto a 96-well microtiter plate at 1 μg/mL in carbonate buffer overnight at 4° C. The plate was washed three times with PBS and blocked by adding 200 μL/well of PBS containing 2% skim milk for 1 hour. […] The 96-well plate was washed three times with PBS, and 100 μL of the incubated mixture was added to each well and incubated for 1 hour at room temperature. After washing with PBST and PBS three times, respectively, 100 μL of SA-HRP was added to each well and incubated at room temperature for 30 minutes in the dark. After washing with PBST and PBS three times, respectively, 100 μL of TMB substrate was added to well for color development at 37° C. for 10 minutes, the reaction was terminated with 50 μL of 2M sulfuric acid solution per well, and the absorbance was read at a wavelength of 450 nm.
Experiment [5] shares this target. As to the kind of experiment: SPR BIAcore T200, antibody captured on Protein A, human TSLP injected. A general note: Surface plasmon resonance follows binding to a sensor surface in real time, without labels.
Description: After each injection cycle, the Protein A chip surface was regenerated with regeneration buffer 10 mM glycine (pH 2.0) at a flow rate of 30 μL/min.
The association rate constant (ka) and dissociation rate constant (kd) and equilibrium dissociation constant KD were analyzed by fitting the resulting data to a Langmuir 1:1 kinetics theoretical model using BIAevaluation software.
Experiment [6] deals with T2, Cynomolgus macaques TSLP recombinant …. As to the kind of experiment: competition ELISA, biotin-cynomolgus TSLP to coated cynomolgus TSLPR-Fc.
Description: Cynomolgus macaques TSLPR recombinant protein was coated onto a 96-well microtiter plate at 1 μg/mL in carbonate buffer overnight at 4° C. The plate was washed three times with PBS and blocked by adding 200 μL/well of PBS containing 2% skim milk for 1 hour. […] The 96-well plate was washed three times with PBS, and 100 μL of the incubated mixture was added to each well and incubated for 1 hour at room temperature. After washing with PBST and PBS three times, respectively, 100 μL of SA-HRP was added to each well and incubated at room temperature for 30 minutes in the dark. After washing with PBST and PBS three times, respectively, 100 μL of TMB substrate was added to well for color development at 37° C. for 10 minutes, the reaction was terminated with 50 μL of 2M sulfuric acid solution per well, and the absorbance was read at a wavelength of 450 nm.
The target in experiment [7] is T1, human TSLP recombinant protein. The experiment in a line: cell-based or functional assay. This is another data set of the same source.
For experiment [8] the target is unchanged. The experiment in a line: cell-based or functional assay. This is another data set of the same source.
The target is the same in experiment [9]. As to the kind of experiment: competition ELISA, biotin-human TSLP to coated human TSLPR-Fc. This is another data set of the same source.
Description: as §2
Experiment [10] addresses T2, Cynomolgus macaques TSLP recombinant …. As to the kind of experiment: competition ELISA, biotin-cynomolgus TSLP to coated cynomolgus TSLPR-Fc.
Description: Cynomolgus macaques TSLPR recombinant protein was coated onto a 96-well microtiter plate at 1 g/mL in carbonate buffer overnight at 4° C. The plate was washed three times with PBS and blocked by adding 200 μL/well of PBS containing 2% skim milk for 1 hour. […] The 96-well plate was washed three times with PBS, and 100 μL of the incubated mixture was added to each well and incubated for 1 hour at room temperature. After washing with PBST and PBS three times, respectively, 100 μL of SA-HRP was added to each well and incubated at room temperature for 30 minutes in the dark. After washing with PBST and PBS three times, respectively, 100 μL of TMB substrate was added to well for color development at 37° C. for 10 minutes, the reaction was terminated with 50 μL of 2M sulfuric acid solution per well, and the absorbance was read at a wavelength of 450 nm.
In experiment [11] the target is T1, human TSLP recombinant protein. The experiment in a line: flow cytometry competition, biotin-human TSLP to Ba/F3-hTSLPR-IL7Rα cells.
Description: Ba/F3-hTSLPR-IL7Rα cells were washed three times with PBS, centrifuged at 300 g for 3 minutes, and blocked with 3% BSA/PBS for 30 minutes. The cells were resuspended and added to a 96-well U-plate at 5×10⁴/well.
The target is the same in experiment [12]. As to the kind of experiment: ELISA on coated human TSLP. The source holds these as a separate data set.
Description: as §1
Experiment [13] deals with T2, Cynomolgus macaques TSLP recombinant …. The experiment in a line: ELISA on coated cynomolgus TSLP.
Description: as §1
The target in experiment [14] is T1, human TSLP recombinant protein. As to the kind of experiment: SPR BIAcore T200, antibody captured on Protein A, human TSLP injected. This is another data set of the same source.
Description: (§3) After each injection cycle, the Protein A chip surface was regenerated with regeneration buffer 10 mM glycine (pH 2.0) at a flow rate of 30 μL/min. The association rate constant (ka) and dissociation rate constant (kd) and equilibrium dissociation constant KD were analyzed by fitting the resulting data to a Langmuir 1:1 kinetics theoretical model using BIAevaluation software.
Experiment [15] concerns the target T2, Cynomolgus macaques TSLP recombinant …. The experiment in a line: SPR BIAcore T200, antibody captured on Protein A, cynomolgus TSLP injected.
Description: as §3

Numbering of substitutions follows the chain as printed. Where two headings read alike, the source gives them in different places.

B1: 79D6 chimeric antibody (antibody, V domains shown)
VH: QVQLQQSGAELVMPGASVKMSCKASGYTFTGYWMHWVKQRPGQGLEWIGTIDNSDSDTTYNQKFKGKVTLTVDESSSTAYMQLSSLTSEDSAVYYCARSVDGYLDYWGQGTTLTVSS
VL: DIQMIQSPASLSASVGETVTITCRASENIYSYLAWYQQIQGKSPQLLVYYAKTLPEGVPSRFSGSGSGTQFSLKINSLQPEDFGSYYCQHHYGTPWTFGGGTKLEIK
The EC50 is the midpoint of the concentration-response curve. The term IC50 denotes the concentration at which inhibition is half-maximal. What is called Kd is the concentration at which binding is half-saturated. By koff is commonly meant a measure of how fast the partners let go of each other. As usually defined, the kon is the second-order rate constant of association. Regarding B1, the “Inhibition IC50 of STAT5 reporter gene” value in experiment [1] was 9610 pM. The concentration giving a half-maximal response (EC50) in experiment [2] came to 580 pM. In addition, the EC50 in experiment [3] worked out at 730 pM. The IC50 in [4] turned out to be 1350 pM. Moreover, in experiment [5], the dissociation constant Kd stood at 20.4 pM, the koff was 8.77e-05 s⁻¹ and the kon was 4.31e+06 M⁻¹ s⁻¹. The IC50 in experiment [6] turned out to be 310 pM.

B2: Murine anti-71G4 (mAb71G4) (antibody, V domains shown)
VH: B1 VH with G31D
VL: B1 VL with D1E, I5T, A25T, I39K, Y50F, P55T, E56D, F62L
notes: also called murine antibody 71G4
Regarding B2, the “Inhibition of Cell Proliferation IC50” value in [7] turned out to be 30700 pM. In experiment [8], the “STAT5 signal inhibition IC50” value was 1140 pM. Further, the IC50 in experiment [9] was 1980 pM; in [10] it was 470 pM; in [11], 270 pM.

B3: Murine anti-39G5 (mAb39G5) (antibody, V domains shown)
VH: QVQLLQSGPQLVRPGASVKISCKASGYSFISYWIHWVKQRPGQGLEWIGIIDPSDSDTSLNQKFKDKATLTVDKSSTTAYIQLSSPTSEDSAVYYCARSLDGYYDYWGQGTTLTVSS
VL: B1 VL with I5T, I39K, Y50N, K52R, S85I, G93T
notes: also called murine antibody 39G5
B3: the “Inhibition of Cell Proliferation IC50” value in [7] stood at 58900 pM. The “STAT5 signal inhibition IC50” value in experiment [8] was 4920 pM. Also, the IC50 was determined as 1950 pM in [9], 1600 pM in experiment [10] and 360 pM in experiment [11].

B4: 76A8 chimeric antibody (antibody, V domains shown)
VH: QVQLQQSGPQLVRPGASVKISCKASGYSFTSYWMHWVKQRPGQGLEWIGLIDPSDSETGLNQRFKDKATLTVDNPSSTAYMQLSSPTSEDSAVYYCARSLDGYYDYWGQGTTLTVSS
VL: DIQMIQSPASLSASVGETVTITCRASGNIHNYLAWYQQKQGKSPQLLVYNAKTLADGVPSRFSGSGSGTQYSLKINSLQPEDFGSYYCQHFWSTPWTFGGGTRLEIK
For B4, the “Inhibition IC50 of STAT5 reporter gene” value in experiment [1] was found to be 9780 pM. Also, in [2], the EC50 is 260 pM. For the same molecule, the concentration for a half-maximal effect (EC50) in [3] came out at 470 pM. For the same molecule, the IC50 in [4] came to 1420 pM. In addition, in experiment [5], the Kd stood at 26 pM, the koff came to 8.36e-05 s⁻¹ and the kon stood at 3.22e+06 M⁻¹ s⁻¹. Moreover, in experiment [6], the IC50 came to 730 pM.

B5: 80E11 chimeric antibody (antibody, V domains shown)
VH: B4 VH with L50V, G59I, R63K, N74K, P75S, L83F
VL: B1 VL with I5T, S26G, I39K, Y50N, P55A, G66A, H91F, Y92W, T97A, K103R
As for B5, the “Inhibition IC50 of STAT5 reporter gene” value in experiment [1] was determined as 13600 pM. Besides, the EC50 in [2] is 150 pM. In addition, the EC50 in experiment [3] came out at 570 pM. Besides, in experiment [4], the IC50 stood at 1800 pM. Besides, in experiment [5], the dissociation constant (Kd) amounted to 18.5 pM, the koff worked out at 0.000123 s⁻¹ and the kon amounted to 6.62e+06 M⁻¹ s⁻¹. In experiment [6], the IC50 was 1150 pM.

B6: 80B12 chimeric antibody (antibody, V domains shown)
VH: B4 VH with S31T, S56G, T58A, R63N, N74I, P75S, S77R, L83I, Y95F
VL: B1 VL with I5T, N28D, I39K, Y50N, P55A, H91F, Y92W, G93S, I106L
Take B6: the “Inhibition IC50 of STAT5 reporter gene” value in experiment [1] was 5790 pM. Further, the figures for the EC50 in [2] and in experiment [3] were 340 pM and 550 pM, respectively. In addition, the IC50 amounted to 2580 pM in [4] and 540 pM in experiment [6]. The Kd in experiment [5] is 22.4 pM. In addition, the koff in [5] was determined as 0.000108 s⁻¹. For the same molecule, in [5], the kon came to 4.82e+06 M⁻¹ s⁻¹.

B7: Ab24 (antibody, V domains shown)
VH: QVQLVQSGAEVKKPGSSVKVSCKASGYTFTDYWMHWVRQAPGQGLEWMGIIDPSDSDTSLNQKFQGRVTLTVDTSTSTAYMELSSLRSEDTAVYYCARSLDGYYDYWGQGTLVTVSS
VL: DIQMTQSPSSLSASVGDRVTITCRTSENIYSYLAWYQQKPGKAPKLLIYFAKTLTDGVPSRFSGSGSGTDFTLTISSLQPEDFATYYCQHHYGTPWTFGQGTKVEIK
notes: Humanized; also called h39G5VHv5/h71G4VKv1; h39G5VHv5/h71G4VKv1 hIgG1
For B7, the “Inhibition of Cell Proliferation IC50” value in experiment [7] was 1040 pM. Further, the “STAT5 signal inhibition IC50” value in experiment [8] is 150 pM. For the same molecule, the concentration for a half-maximal effect (EC50) in experiment [12] was 220 pM; in experiment [13], 1370 pM. The IC50 is 2010 pM in experiment [9], 1630 pM in [10] and 360 pM in experiment [11]. The Kd in experiment [14] was determined as 0.0234 pM; in [15], 0.179 pM. Also, the koff was 3.99e-08 s⁻¹ in experiment [14] and 2.85e-07 s⁻¹ in experiment [15]. Also, the kon in experiment [14] was determined as 1.7e+06 M⁻¹ s⁻¹; in experiment [15], 1.59e+06 M⁻¹ s⁻¹.

B8: Ab23 (antibody, V domains shown)
VH: B7 VH with T28S, T30I, D31S, M34I, L70I, V72A, T74E
VL: B7 VL
notes: Humanized; also called h39G5VHv2/h71G4VKv1; h39G5VHv2/h71G4VKv1 hIgG1
On to B8, for which, in experiment [7], the “Inhibition of Cell Proliferation IC50” value is 1100 pM. The “STAT5 signal inhibition IC50” value in experiment [8] was found to be 170 pM. Further, the EC50 is 240 pM in [12] and 830 pM in experiment [13]. Moreover, the values for the IC50 in [9], in [10] and in experiment [11] were 1760 pM, 1540 pM and 330 pM, respectively. For the same molecule, the equilibrium dissociation constant (Kd) in [14] is 0.0812 pM; in [15], 0.00708 pM. The koff worked out at 1.61e-07 s⁻¹ in experiment [14] and 1.36e-08 s⁻¹ in experiment [15]. The on-rate constant (kon) in [14] is 1.98e+06 M⁻¹ s⁻¹; in experiment [15], 1.93e+06 M⁻¹ s⁻¹.

B9: Ab21 (antibody, V domains shown)
VH: B7 VH with I50T, P53N, S59T, L60Y, L70M, V72R, A79V, L100V, Y104L
VL: B7 VL
notes: Humanized; also called h71G4VHv3/h71G4VKv1
In the case of B9, the “Inhibition of Cell Proliferation IC50” value in [7] was found to be 178000 pM. Also, the figures for the EC50 in [12] and in experiment [13] were 280 pM and 540 pM, respectively. Also, the IC50 in experiment [9] was determined as 2180 pM; in experiment [10], 1080 pM; in experiment [11] it was 360 pM.

B10: Ab22 (antibody, V domains shown)
VH: B7 VH with T28S, T30I, D31S, M34I, T74K, T76S, S77T
VL: B7 VL
notes: Humanized; also called h39G5VHv1/h71G4VKv1; h39G5VHv1/h7IG4VKv1 hIgG1
Consider B10, for which, in experiment [7], the “Inhibition of Cell Proliferation IC50” value was determined as 2200 pM. For the same molecule, the “STAT5 signal inhibition IC50” value in [8] was 170 pM. Also, the EC50 in experiment [12] stood at 290 pM; in [13], 770 pM. Also, the IC50 was 1800 pM in experiment [9], 1000 pM in experiment [10] and 390 pM in experiment [11]. Also, the dissociation constant Kd came to 0.064 pM in [14] and 0.0421 pM in experiment [15]. Also, the koff in experiment [14] turned out to be 1.07e-07 s⁻¹; in experiment [15], 6.7e-08 s⁻¹. Further, the kon turned out to be 1.68e+06 M⁻¹ s⁻¹ in [14] and 1.59e+06 M⁻¹ s⁻¹ in experiment [15].

B11: Ab26 (antibody, V domains shown)
VH: B7 VH with L70I, V72A
VL: B7 VL
notes: Humanized; also called h39G5VHv10/h71G4VKv1; h39G5VHv10/h71G4VKv1 hIgG1
On to B11, for which, in experiment [7], the “Inhibition of Cell Proliferation IC50” value stood at 1500 pM. The “STAT5 signal inhibition IC50” value in experiment [8] was 180 pM. For the same molecule, the values for the EC50 in experiment [12] and in [13] were 180 pM and 950 pM, respectively. In addition, the IC50 is 1660 pM in experiment [9], 690 pM in experiment [10] and 390 pM in experiment [11]. For the same molecule, the Kd is 2.03 pM in experiment [14] and 0.308 pM in [15]. Besides, the koff in experiment [14] turned out to be 2.79e-06 s⁻¹; in experiment [15], 3.82e-07 s⁻¹. The on-rate (kon) in experiment [14] was found to be 1.37e+06 M⁻¹ s⁻¹; in experiment [15] it was 1.24e+06 M⁻¹ s⁻¹.
